Reference: patent publication US20130136718A1
Read-outs that look alike come from different tables or passages of the source.

Legend:
CD20 (human) [1] = target: CD20 (human) (UniProt P11836); test: cell-based or functional assay
CD20 (human) [2] = target: CD20 (human) (UniProt P11836); test: cell-based or functional assay; remark: listed apart in the source

Sequence of CD20 (human) (P11836 whole entry): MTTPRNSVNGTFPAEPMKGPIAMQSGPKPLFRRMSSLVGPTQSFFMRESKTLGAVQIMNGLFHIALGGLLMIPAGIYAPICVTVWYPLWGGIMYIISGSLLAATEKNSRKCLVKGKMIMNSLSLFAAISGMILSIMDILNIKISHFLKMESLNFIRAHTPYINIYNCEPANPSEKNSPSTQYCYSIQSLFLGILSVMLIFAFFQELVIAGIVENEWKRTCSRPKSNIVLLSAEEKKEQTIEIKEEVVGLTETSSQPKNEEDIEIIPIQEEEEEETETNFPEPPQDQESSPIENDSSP

Row | in vitro proliferation of Daudi cells, potency against non-targeting MAb-IFNα constructs (CD20 (human) [1]) | in vitro proliferation of Jeko-1 cells, low-concentration response, EC50 (CD20 (human) [1]) | in vitro proliferation of Jeko-1 cells, potency against 734-2b (CD20 (human) [1]) | in vitro proliferation of Jeko-1 cells, high-concentration response, EC50 (CD20 (human) [2]) | in vitro proliferation of Jeko-1 cells, EC50 (CD20 (human) [1]) | in vitro proliferation of Jeko-1 cells, EC50 (CD20 (human) [2]) | Substance
1 | 30 fold | 0.00097 nM | 25 fold | 0.85 nM |  |  | 20-2b (from UniProt P01563 24-188)
2 |  |  |  |  | 1 nM | 1.5 nM | veltuzumab (antibody)
